B1: 846T.4C9: anti-Gal3 antibody (antibody, V domains shown)
VH: EVQLQQSGPELVKPGASVKMSCKASGYSFTNYIMHWVKQKPGQGLEWIGYINPYNDGTKYNEKFKGKATLTSDKSSSTAYMELSSLTSEDSAVYYCARLLFYYAMDYWGQGTSVTVSS
VL: DILMTQTPSSMSVSLGDTVSITCHASQGISSNIGWLQQKPRKSFKGLIYYGTNLEDGVPSRFSGSGSGADYSLTISSLESEDFADYYCVQYDQFPWTFGGGTKLEIK
B2: 849.4F12: anti-Gal3 antibody (antibody, V domains shown)
VH: QVQLKESGPGILQPSQTLSLTCSFSGFSLSTFGMGVGWIRQPSGKGLEWLAHIWWDDDKHYNPALKSRLTISKDTSKNQVFLRIANVDTADNATYYCARIDYGDYVGFAYWGQGTLVTVSA
VL: DILLTQSPSSMSVSLGDTVSITCHASQGINSNIGWLQQKPGKSFKGLIYHGTNLEDGVPSRFSGSGSGADYSLTISSLESEDFADYYCVQYDQFPWTFGGGTKLEIK
B3: 847.15F9: anti-Gal3 antibody (antibody, V domains shown)
VH: QVQMKQSGPGLVQPSQSLSITCTVSGFSLINYGVHWVRQSPGKGLEWLGVIWSGGSTDYNAAFISRLSISKDNSKSQVFFKMNSLQADDTAIYYCARIYYYGRGYAMDYWGQGTSVTVSS
VL: QIVLSQSPAILSASPGEKVTMTCRASSSVTYMYWYQQKPGSSPQPWIYATSNLASGVPARFSGSGSGTSYSLTISRVEAEDAATYYCQQWSSNPLTFGAGTKLELK
B4: 847.2B8: anti-Gal3 antibody (antibody, V domains shown)
VH: QVQLKQSGPGLVQPSQSLSITCTVSGFSLINYGVHWVRQSPGKGLEWLGVIWSGGSTDYNAAFISRLSISKDNSKSQVFFKMNSLQADDTAIYYCARIYYYGRGYAMDYWGQGTSVTVSS
VL: QILLSQSPAILSASPGEKVTMTCRASSSVTYMYWYQQKPGSSPQPWIYATSNLASGVPARFSGSGSGTSYSLTISRVEAEDAATYYCQQWSSNPLTFGAGTKLELK
B5: 849.5H1: anti-Gal3 antibody (antibody, V domains shown)
VH: QVQLKESGPVLVAPSQSLSITCTVSGFSLTSYGIHWVRQPPGKGLEWLGVIWAGGSTNYNSALMSRLSISKDNSKSQVFLKMNSLQIDDTAMYYCAKPPHDYDQAWFAYWGQGTLITVSA
VL: DIQMNQSPSSLSASLGDTITITCHASQNINVWLSWYQQKPGNIPKLLIYQASNLHTGVPSRFSGRGSGTGFTLTISSLQPEDIATYYCQQGQSSPFTFGSGTKLEIK
B6: 2D10-hVH4-HVL1: anti-Gal3 antibody, VH SEQ ID NO: 806, VL SEQ ID NO: 821 (antibody, V domains shown)
VH: QVQLVQSGAEVKKPGASVKVSCKASGYTFTDYYINWVRQAPGQRLEWMGWIYPGSQDTKYNEKFQGRVTLTVDTSASTAYMELSSLRSEDTAVYFCANYFGSSGWFFDVWGQGTMVTVSS
VL: DIVMTQSPLSLPVTPGEPASISCRSSKSLLHSDGITYLYWYLQKPGQSPQLLIYRMSNRASGVPDRFSGSGSGTDFTLKISRVEAEDVGVYYCAQMIEFPLTFGQGTKLEIK
modifications: VH-80 Peptide Sequence; VL-78 Peptide Sequence
B7: 847.16D10: anti-Gal3 antibody (antibody, V domains shown)
VH: QVQLQQSGAELVRPGASVKLSCKASGYTFTGYWLNWVKQRPGQGLEWIGMIDPSDSETHYNQVFKDKATMTVDRSSSTAYMQLSGLTSEDSAVYYCANSNYASGSWGQGTTLTVSS
VL: QAVVTQESALTTSPGETVTLTCRSSTGAVTTSNYANWDQEKPDHLFTGLIGGTNNRAPGVPARFSGSLIGDKAALTITGAQTEDEAIYFCALWYSNHLVFGGGTKVTVL
B8: 847.21B11: anti-Gal3 antibody (antibody, V domains shown)
VH: QVQLKQSGPGLVAPSQSLSITCTVSGFSLTSYGVHWVRQPPGKGLEWLGIIWAGGSTNYNPALMSRLSISKDKSKSQVFLKMNSLKTDDTAMYYCARDRASLLRPGAMDYWGQGTSVTVSS
VL: DIVMTQSQKFMSTSVGDRVSVTCKASQNVGINVAWYQQKPGQSPKALIYSASYRYSGVPDRFTGSGSGTDFTLTISNVQSEDLAEYFCQQYNSYPYTFGGGTKLEMK
B9: 847.4D3: anti-Gal3 antibody (antibody, V domains shown)
VH: EVQLVESGGGLVKPGGSLKLSCAASGFTFSSYAMSWVRQTPEKRLEWVASISSGDSPYYPDSVKGRFTISRDNARNILYLQMSSLRSEDTAMYYCTRFTTVVEMDYWGQGTSVTVSS
VL: DVVMTQTPKFLPITAEDRVTITCKASQSVSNEVAWYQQKPGQSPKLLIYYASNRYTGVPDRFTGSGSGTDFTFTIRSVQLEDLAVYFCQQHYSSPWTFGGGTKLEIK
B10: 849.2D7: anti-Gal3 antibody (antibody, V domains shown)
VH: QVQLQQSGPQLVRPGASVKISCKASGYSFTNYWMHWVKQRPGQGLEWIGMIDPSDSETRLNQKFKDKATLTVDKSSSTAYMQLSSPTSEDSAVYYCATGRPDYWGQGTTLTVSS
VL: DIVMTQSHKFMSTSVGDRVSITCKASQDVSTAVAWYQQKPGQSPKLLIYWASTRHTGVPDRFTGSGSGTDYTLTISSVQAEDLALYYCQQHYSTPYTFGGGTKLEIK
B11: 847.20H7: anti-Gal3 antibody (antibody, V domains shown)
VH: QVQLQQSGAELVRPGASVNLSCKASGYTFTNYWMNWVKQRPGQGLEWVGMIDPSDSETHYNQMFKDKATLTIDKSSSIAYMQLSSLTSEDSAVYYCARWGAMDYWGQGTSVTVSS
VL: DIVMTQSHKIMSTSVGDRVSITCKASQDVSTTVAWFQQKPGQSPKLLLYWASTRHTGVPDRFTGSGSGTDYTLTISSVQAEDLALYYCQQHYSPPFTFGSGTKLEIK

Legend:
Human Gal3 peptides = assay: Gal3 peptide binding ELISA (Example 8); details: antibody 5 μg/mL
Experimental: Gal3 peptide binding activity of additional exemplary anti-Gal3 antibodies was assessed with the same peptides as described in FIG. 18 (SEQ ID NOs: 3-26). Human Gal3 peptides (LifeTein, custom order) and human Gal3 proteins (R&D Systems, 8259-GA; TrueBinding, QCB200349) were diluted in PBS (Corning, 21-030-CM) to concentrations of at least 100 μg/mL (peptides) or 1 μg/mL (proteins), and added to the wells of several 96-well ELISA plates (Thermo Fisher, 44-2404-21). After incubating the plates at 4° C. overnight, the plates were washed three times with PBST (PBS with 0.05% Tween 20 [VWR, 0777]). The plates were then blocked for an hour with 2% BSA (EMD Millipore, 126609) in PBST at room temperature with gentle rocking. Thereafter, the 2% BSA in PBST was discarded and Gal3-binding antibodies (reformatted hIgG4 [S228P]) were diluted in 2% BSA in PBST to concentrations of 5 μg/mL and added to the wells. The plates were incubated for an hour at room temperature with gentle rocking and then washed three times with PBST. Afterwards, Peroxidase AffiniPure F(ab′)2 Fragment Goat Anti-Human IgG (H+L) polyclonal antibody (Jackson ImmunoResearch, 109-036-003), was diluted in 2% BSA in PBST (1:4000) and added to the wells. The plates were incubated for 1 hour at room temperature with gentle rocking and then washed three times with PBST. TMB substrate (Thermo Scientific, 34029) was then added to each well. The reaction was stopped with 1M HCl (JT Baker, 5620-02) and read using a plate reader (Molecular Devices) at absorbance of 450 nm.

human Gal3 = biological target: T1, human Gal3 (Homo sapiens, UniProt P17931); assay: Epitope binning, sandwich format, SPR Carterra LSA (Example 8); assay type: binding
T1 construct: 6xHis (linker-spaced) (C); purchased AcroBio (Acro Biosystems) GA3-H5129
Experimental: The epitope binning assay was done in a sandwich format on the high-throughput SPR-based Carterra LSA unit (CarterraBio, Salt Lake City, Utah). First, the purified antibodies were diluted to 10 μg/ml concentration in 10 mM NaOAc (pH 5.0) and then were covalently coupled via amine group to HC200M chip activated by EDC and S-NHS to immobilize antibodies to different positions of a 384-spot array. One hundred thirty-eight binning cycles were run on the array of immobilized antibodies. In each cycle, first, human Gal3 (AcroBio GA3-H5129) was injected over the entire array to bind to different antibodies (primary antibody), followed by one antibody (secondary antibody) selected among the panel of 150 anti-GAL3 antibodies tested. At the end of each cycle, the array was regenerated by 10 mM Glycine (pH 2.0) to remove bound antigen and secondary antibody from the array. The data analysis was done using the Epitope software by CarterraBio.

[1] = test system: GLUT4 translocation in L6 GLUT4myc myoblasts; assay: Insulin-stimulated GLUT4 translocation with Gal3 and anti-Gal3 antibody; assay type: cell-based, rat; details: 30 μg/mL Gal3 pre-incubated with 60 μg/mL antibody, 100 nM insulin
Experimental: Rat L6 GLUT4myc myoblasts (Kerafast #ESK202-FP) express a Myc-tagged GLUT4 that can be detected with an anti-Myc antibody. These cells were grown in a 48-well plate in MEM u growth media (Gibco, #12-571-063)+10% fetal bovine serum (FBS; Corning #35-016-CV) until 90-95% confluence was reached. Cells were then washed in PBS and serum starved for 2 hours in MEM u growth media without FBS. Thirty (30) μg/mL recombinant human Gal3 (TrueBinding QCB200347) was pre-incubated with 60 μg/mL anti-Gal3 antibodies for 30 minutes before being added to the serum-starved cells for 1 hour at 37° C. At the end of incubation, half of the cells were treated with 100 nM insulin (Sigma-Aldrich #I5523-50MG) for 20 minutes while the other half acted as basal controls. After 20 minutes, cells were washed quickly with ice cold PBS twice, then incubated with 4% paraformaldehyde (Boster Bio #AR1068) for 10 minutes on ice followed by 10 minutes at room temperature. The cells were washed three times with PBS, then blocked with 0.5 mL 5% goat serum (Vector Laboratories #101098-382) in PBS for 15 minutes. After the blocking agent was aspirated from the cells, 1 μg/ml anti-Myc polyclonal antibody (Sigma-Aldrich #C-3956) in 5% goat serum was added for 1 hour. […] Primary antibody was aspirated away, and then cells washed 5 times with PBS. Next, cells (including background controls) were incubated with 1:1000 goat anti rabbit antibody secondary antibody (Abcam #Ab97051) in 5% Goat serum for 30 minutes at room temperature. After washing, cells were incubated with 400 μL of TMB (Thermo Scientific #PI34029) for 5 minutes, then 200 μL of 1N HCL (Avantor Performance #JT5620-2) was added to stop the reaction. 100 μL of the sample was transferred to a 96 well plate with duplicates transferred for each condition. Samples were read at 450 nm on a SpectraMax plate reader. […] The fold changes were plotted on GraphPad Prism and presented as mean (SEM) of the technical replicates. Statistical significance was determined using unpaired T-tests comparing samples treated with Gal3 and insulin with all other conditions.

T1 sequence (P17931 whole entry): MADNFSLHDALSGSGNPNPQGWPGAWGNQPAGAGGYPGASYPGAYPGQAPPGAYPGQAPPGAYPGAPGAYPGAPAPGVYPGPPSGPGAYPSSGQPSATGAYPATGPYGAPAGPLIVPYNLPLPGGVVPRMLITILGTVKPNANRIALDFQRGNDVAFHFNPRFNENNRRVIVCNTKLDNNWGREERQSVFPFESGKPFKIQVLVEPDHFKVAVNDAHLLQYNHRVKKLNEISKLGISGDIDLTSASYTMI

Molecule	binding to any of the tested Gal3 peptides (Human Gal3 peptides)	binding to hGAL3 when immobilized on HC200M chip (human Gal3)	epitope bin (mutual competitive binding for Gal3) (human Gal3)	effect on Gal3 block of insulin-stimulated GLUT4 translocation [1]
B1	not found to bind	not bind	–	–
B2	not found to bind	not bind	–	–
B3	not found to bind	not bind	–	–
B4	not found to bind	not bind	–	–
B5	not found to bind	–	21	–
B6	–	–	–	reduce the ability of Gal3 to block GLUT4 translocation
B7	not found to bind	–	CRD	–
B8	not found to bind	not bind	–	–
B9	not found to bind	not bind	–	–
B10	not found to bind	–	10	–
B11	not found to bind	–	–	–

— patent publication US20220411514A1, “ANTI-GAL3 ANTIBODIES AND METHODS OF USE FOR INSULIN RESISTANCE” (TrueBinding, Inc., priority 2021, published 2022)
